B1: target 1 MT 5'PFS AGG 3'PFS UCG (mixed)
RNA 1: CACCCGUGCAAAAAUGCAGGGGUCUAAAACUGAGCGGAUAACCUCUCUAUGG
RNA 2: GGGAAUGGAUCCACAUCUACGAAUUCAGGCCAUAGAGAGGUUAUCCGCUCAUCGAGAUCGGAAGAGCACACGU
B2: target 1 MT 5'PFS CAC 3'PFS UCC (mixed)
RNA 1: B1 RNA 1
RNA 2: B1 RNA 2 with A27C, G28A, G29C, G54C
B3: target 1 MT 5'PFS GUA 3'PFS AUC (mixed)
RNA 1: B1 RNA 1
RNA 2: B1 RNA 2 with A27G, G28U, G29A, U52A, C53U, G54C
B4: target 1 MT 5'PFS ACG 3'PFS UCG (mixed)
RNA 1: B1 RNA 1
RNA 2: B1 RNA 2 with G28C
B5: target 1 MT 5'PFS AAU 3'PFS UUC (mixed)
RNA 1: B1 RNA 1
RNA 2: B1 RNA 2 with G28A, G29U, C53U, G54C
B6: target 1 MT 5'PFS CAG 3'PFS UAC (mixed)
RNA 1: B1 RNA 1
RNA 2: B1 RNA 2 with A27C, G28A, C53A, G54C
B7: target 1 MT 5'PFS CUA 3'PFS UUC (mixed)
RNA 1: B1 RNA 1
RNA 2: B1 RNA 2 with A27C, G28U, G29A, C53U, G54C
B8: target 1 MT 5'PFS CAC 3'PFS UCG (mixed)
RNA 1: B1 RNA 1
RNA 2: B1 RNA 2 with A27C, G28A, G29C
B9: target 1 insG 3' of 16,insG 3' of 3 (mixed)
RNA 1: B1 RNA 1
RNA 2: GGGAAUGGAUCCACAUCUACGAAUUCGUACCAUAGAGGAGGUUAUCCGCUGCACCGAGAUCGGAAGAGCACACGU
B10: target 1 MT 5'PFS CUA 3'PFS UUG (mixed)
RNA 1: B1 RNA 1
RNA 2: B1 RNA 2 with A27C, G28U, G29A, C53U
B11: target 1 MT 5'PFS AGA 3'PFS UUA (mixed)
RNA 1: B1 RNA 1
RNA 2: B1 RNA 2 with G29A, C53U, G54A
B12: target 1 MT 5'PFS GUA 3'PFS AUU (mixed)
RNA 1: B1 RNA 1
RNA 2: B1 RNA 2 with A27G, G28U, G29A, U52A, C53U, G54U
B13: target 1 MT 5'PFS CCU 3'PFS UUC (mixed)
RNA 1: B1 RNA 1
RNA 2: B1 RNA 2 with A27C, G28C, G29U, C53U, G54C
B14: target 1 MT 5'PFS CAG 3'PFS UAU (mixed)
RNA 1: B1 RNA 1
RNA 2: B1 RNA 2 with A27C, G28A, C53A, G54U
B15: target 1 MT 5'PFS CCU 3'PFS UUA (mixed)
RNA 1: B1 RNA 1
RNA 2: B1 RNA 2 with A27C, G28C, G29U, C53U, G54A
B16: target 1 C6U,G12C (mixed)
RNA 1: B1 RNA 1
RNA 2: B1 RNA 2 with A27G, G28U, G29A, G40C, C46U, U52C
B17: target 1 MT 5'PFS CUU 3'PFS UUG (mixed)
RNA 1: B1 RNA 1
RNA 2: B1 RNA 2 with A27C, G28U, G29U, C53U
B18: target 1 MT 5'PFS AGA 3'PFS UUU (mixed)
RNA 1: B1 RNA 1
RNA 2: B1 RNA 2 with G29A, C53U, G54U
B19: target 1 MT 5'PFS GGU 3'PFS ACU (mixed)
RNA 1: B1 RNA 1
RNA 2: B1 RNA 2 with A27G, G29U, U52A, G54U
B20: target 1 MT 5'PFS ACG 3'PFS UCU (mixed)
RNA 1: B1 RNA 1
RNA 2: B1 RNA 2 with G28C, G54U
B21: target 1 MT 5'PFS UAC 3'PFS UUG (mixed)
RNA 1: B1 RNA 1
RNA 2: B1 RNA 2 with A27U, G28A, G29C, C53U
B22: target 1 MT 5'PFS CUU 3'PFS UUA (mixed)
RNA 1: B1 RNA 1
RNA 2: B1 RNA 2 with A27C, G28U, G29U, C53U, G54A
B23: target 1 MT 5'PFS UAA 3'PFS CCU (mixed)
RNA 1: B1 RNA 1
RNA 2: B1 RNA 2 with A27U, G28A, G29A, U52C, G54U
B24: target 1 MT 5'PFS CCU 3'PFS UUG (mixed)
RNA 1: B1 RNA 1
RNA 2: B1 RNA 2 with A27C, G28C, G29U, C53U
B25: target 1 MT 5'PFS GUG 3'PFS UCU (mixed)
RNA 1: B1 RNA 1
RNA 2: B1 RNA 2 with A27G, G28U, G54U
B26: target 1 MT 5'PFS GUG 3'PFS UCG (mixed)
RNA 1: B1 RNA 1
RNA 2: B1 RNA 2 with A27G, G28U
B27: target 1 MT 5'PFS GUG 3'PFS UCA (mixed)
RNA 1: B1 RNA 1
RNA 2: B1 RNA 2 with A27G, G28U, G54A
B28: target 1 MT 5'PFS CUU 3'PFS UUC (mixed)
RNA 1: B1 RNA 1
RNA 2: B1 RNA 2 with A27C, G28U, G29U, C53U, G54C
B29: target 1 MT 5'PFS GUA 3'PFS AUA (mixed)
RNA 1: B1 RNA 1
RNA 2: B1 RNA 2 with A27G, G28U, G29A, U52A, C53U, G54A
B30: target 1 MT 5'PFS AGA 3'PFS UUC (mixed)
RNA 1: B1 RNA 1
RNA 2: B1 RNA 2 with G29A, C53U, G54C
B31: target 1 insU 3' of 12,insU 3' of 6 (mixed)
RNA 1: B1 RNA 1
RNA 2: B9 RNA 2 with G38A, A39G, G41U, G48U, C49G, U50C, G51U
B32: target 1 U8A,U19C (mixed)
RNA 1: B1 RNA 1
RNA 2: B1 RNA 2 with A27G, G28U, G29A, U33C, U44A, U52C
B33: target 1 MT 5'PFS AAU 3'PFS UUG (mixed)
RNA 1: B1 RNA 1
RNA 2: B1 RNA 2 with G28A, G29U, C53U
B34: target 1 MT 5'PFS GUA 3'PFS AUG (mixed)
RNA 1: B1 RNA 1
RNA 2: B1 RNA 2 with A27G, G28U, G29A, U52A, C53U
B35: target 1 MT 5'PFS GUG 3'PFS UCC (mixed)
RNA 1: B1 RNA 1
RNA 2: B1 RNA 2 with A27G, G28U, G54C
B36: target 1 MT 5'PFS ACG 3'PFS UCC (mixed)
RNA 1: B1 RNA 1
RNA 2: B1 RNA 2 with G28C, G54C
B37: target 1 MT 5'PFS AGA 3'PFS UUG (mixed)
RNA 1: B1 RNA 1
RNA 2: B1 RNA 2 with G29A, C53U
B38: target 1 MT 5'PFS AGG 3'PFS UCU (mixed)
RNA 1: B1 RNA 1
RNA 2: B1 RNA 2 with G54U

The values below come from article PMC10786891, “Massively parallel profiling of RNA-targeting CRISPR-Cas13d”.

Numbering of substitutions follows the chain as printed. In names and notes the source's numbering stands.

This series addresses T1, EsCas13d, nuclease-dead (Eubacterium siraeum, UniProt B0MS50, R295A;H300A;R849A;H854A).
T1 sequence: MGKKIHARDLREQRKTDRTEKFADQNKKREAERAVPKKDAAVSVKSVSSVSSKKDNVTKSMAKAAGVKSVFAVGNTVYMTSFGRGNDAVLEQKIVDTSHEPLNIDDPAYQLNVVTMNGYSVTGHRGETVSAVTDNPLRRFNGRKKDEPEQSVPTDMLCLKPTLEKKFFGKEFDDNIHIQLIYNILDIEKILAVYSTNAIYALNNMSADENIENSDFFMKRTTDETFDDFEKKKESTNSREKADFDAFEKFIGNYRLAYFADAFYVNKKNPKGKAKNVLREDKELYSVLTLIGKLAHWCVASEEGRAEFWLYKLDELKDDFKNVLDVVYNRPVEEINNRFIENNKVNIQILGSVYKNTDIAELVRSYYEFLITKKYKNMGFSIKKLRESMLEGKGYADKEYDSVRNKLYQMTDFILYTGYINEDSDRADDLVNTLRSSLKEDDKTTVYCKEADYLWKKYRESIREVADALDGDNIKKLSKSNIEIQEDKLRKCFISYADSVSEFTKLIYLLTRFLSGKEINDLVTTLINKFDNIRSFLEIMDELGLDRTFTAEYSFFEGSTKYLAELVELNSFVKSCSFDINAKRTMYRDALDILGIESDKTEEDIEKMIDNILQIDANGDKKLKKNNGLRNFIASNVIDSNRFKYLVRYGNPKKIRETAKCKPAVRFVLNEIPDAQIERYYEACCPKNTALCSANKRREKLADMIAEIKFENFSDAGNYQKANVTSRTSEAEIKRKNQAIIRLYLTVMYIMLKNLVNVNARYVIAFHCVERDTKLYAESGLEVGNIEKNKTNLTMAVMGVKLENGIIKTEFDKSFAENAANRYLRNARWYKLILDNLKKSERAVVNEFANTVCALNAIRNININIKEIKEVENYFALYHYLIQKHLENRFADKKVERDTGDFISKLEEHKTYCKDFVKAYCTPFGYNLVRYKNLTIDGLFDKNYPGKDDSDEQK
Nature of the series: crRNA (strand 1, pre-loaded); Mg2+; 40 mM Tris-HCl pH 7.5, 150 mM NaCl, 6 mM MgCl2, 1 mM DTT, 0.1% Tween-20, 0.2 mg/ml BSA; 25 C; 10 min per concentration, then washed. The following applies: tags: His6-TwinStrep-SUMO cleaved; N-terminal SNAP kept (SNAP-Surface 488); label: 3' end held by stalled T7 RNA polymerase.
Take B1: binding was characterised by a dissociation constant (Kd) of 51 ± 21 nM. Take B2: binding was put at a Kd of 20.5 ± 6.5 nM. This Kd lies about 2.5-fold lower than the previous one. For B3 the value was 14.8 ± 1.45 nM; for B4, 24 ± 6 nM; for B5, 20 ± 5.5 nM. In the case of B6 it was 11.9 ± 4 nM. For B7 the value was 6.85 ± 2.1 nM; for B8, 8.65 ± 3.7 nM.

As to B9, the Kd was 16.2 ± 1.1 nM. For B10 the value was 5.7 ± 0.65 nM. For B11 the value was 42 ± 11 nM.

In turn, B12 showed a Kd of 12.9 ± 1.15 nM. Compared with the last molecule, the Kd is about 3.3-fold lower. For B13 the value was 32.5 ± 9.5 nM; for B14, 51.5 ± 21 nM. The molecule B15 had a Kd of 14.3 ± 2.75 nM. Regarding B16, binding was characterised by a dissociation constant (Kd) of 12.9 ± 1.1 nM. For B17 the value was 29.5 ± 7.5 nM; for B18, 27.5 ± 11 nM; for B19, approximately 63 nM. In turn, B20 gave a Kd of 9.65 ± 2.55 nM.

In turn, B21 returned a Kd of 7.55 ± 1.15 nM. In the case of B22 it was 20.9 ± 4.25 nM; in that of B23, 22 ± 11 nM. For B24 the value was 11.7 ± 2.5 nM; for B25, 10.3 ± 0.7 nM.

For the molecule B26, the Kd was 10.5 ± 0.62 nM.

B27 yielded a Kd of 14.5 ± 1.45 nM. In the case of B28 it was 14.2 ± 2.55 nM; in that of B29, 14.1 ± 1.15 nM; in that of B30, approximately 22 nM. For B31 the value was 9.5 ± 0.4 nM; for B32, 56 ± 9 nM; for B33, 72 ± 26 nM. For B34 the value was 14 ± 0.85 nM; for B35, 10.9 ± 1.1 nM. For B36, the Kd is approximately 31 nM. In the case of B37 it was 50 ± 18 nM. In the case of B38 it was 30.5 ± 9 nM.

A word on the Kd: it is the concentration at which binding is half-saturated.
